Test results taken from patent publication US20210347913A1 (published 2021).

T1: PTK7 on PTK7 positive cell line SaOS-2 (osteosarcoma) (UniProt Q13308 31-1070)
T1 chain: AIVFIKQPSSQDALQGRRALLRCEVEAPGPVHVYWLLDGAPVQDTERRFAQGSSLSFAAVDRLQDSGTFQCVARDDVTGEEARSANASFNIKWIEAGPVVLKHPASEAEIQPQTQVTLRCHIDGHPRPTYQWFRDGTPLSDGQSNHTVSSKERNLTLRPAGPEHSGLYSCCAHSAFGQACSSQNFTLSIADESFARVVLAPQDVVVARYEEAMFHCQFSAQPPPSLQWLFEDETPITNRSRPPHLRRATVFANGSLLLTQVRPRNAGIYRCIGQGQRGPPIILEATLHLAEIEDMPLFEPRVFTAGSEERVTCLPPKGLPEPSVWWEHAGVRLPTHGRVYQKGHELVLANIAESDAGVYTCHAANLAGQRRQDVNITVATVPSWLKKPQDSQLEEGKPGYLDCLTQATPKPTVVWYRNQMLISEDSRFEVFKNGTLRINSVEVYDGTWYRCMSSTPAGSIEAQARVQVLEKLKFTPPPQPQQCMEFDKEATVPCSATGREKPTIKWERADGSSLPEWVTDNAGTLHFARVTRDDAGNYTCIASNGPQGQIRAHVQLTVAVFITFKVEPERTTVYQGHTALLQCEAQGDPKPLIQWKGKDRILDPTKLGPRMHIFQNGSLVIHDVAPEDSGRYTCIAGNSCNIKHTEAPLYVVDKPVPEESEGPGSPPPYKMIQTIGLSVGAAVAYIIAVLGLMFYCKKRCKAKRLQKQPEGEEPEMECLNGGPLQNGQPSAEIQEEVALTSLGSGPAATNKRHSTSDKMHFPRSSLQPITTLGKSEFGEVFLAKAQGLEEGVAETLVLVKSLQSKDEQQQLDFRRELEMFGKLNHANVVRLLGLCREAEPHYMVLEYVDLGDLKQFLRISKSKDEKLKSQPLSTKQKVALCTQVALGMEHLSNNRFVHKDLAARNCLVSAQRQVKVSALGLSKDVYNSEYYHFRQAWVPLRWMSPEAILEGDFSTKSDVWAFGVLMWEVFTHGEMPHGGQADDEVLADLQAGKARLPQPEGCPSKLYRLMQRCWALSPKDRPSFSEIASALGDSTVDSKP


Tests used:
[1] = target: T1, PTK7 on PTK7 positive cell line SaOS-2 …; assay: FACS binding SaOS-2
[2] = target: T1, PTK7 on PTK7 positive cell line SaOS-2 …; assay: FACS binding SaOS-2; +MMP14
[3] = target: T1, PTK7 on PTK7 positive cell line SaOS-2 …; assay: FACS binding SaOS-2; -MMP14

| Binder | EC50 [1] [µM] | EC50 [2] [µM] | EC50 [3] [µM] |
| --- | --- | --- | --- |
| 181 M10 (antibody) QGCYIGLRMVPCFHMGSSGGSGGSGGSGGGPLGLAGGSSGQVQLVESGGGVVQPGRSLRLSCAASGFTFSSYGMHWVRQAPGKGLEWVAVIWDDGSNKYYVDSVKGRFTISRDNSKNTLYLQMNSLRAEDTAVYYCARDDYYGSGSFNSYYGTDVWGQGTTVTVSSGGGGSGGGGSGGGGSEIVLTQSPATLSLSPGERATLSCRASQSVSIYLAWYQQKPGQAPRLLIYDASNRATGIPARFSGSGSGTDFTLTISSLEPEDFAVYYCQQRSNWPPFTFGPGTKVDIKSAAAFVPVFLPAKPTTTPAPRPPTPAPTIASQPLSLRPEACRPAAGGAVHTRGLDFACDIYIWAPLAGTCGVLLLSLVITLYCNHRNRSKRSRLLHSDYMNMTPRRPGPTRKHYQPYAPPRDFAAYRSRVKFSRSADAPAYQQGQNQLYNELNLGRREEYDVLDKRRGRDPEMGGKPRRKNPQEGLYNELQKDKMAEAYSEIGMKGERRRGKGHDGLYQGLSTATKDTYDALHMQALPPR | 1.35 | 0.00049 | 0.434 |
| 181 M11 (antibody) QGCTMPSHAVASFLCGSSGGSGGSGGSGGGPLGLAGGSSGQVQLVESGGGVVQPGRSLRLSCAASGFTFSSYGMHWVRQAPGKGLEWVAVIWDDGSNKYYVDSVKGRFTISRDNSKNTLYLQMNSLRAEDTAVYYCARDDYYGSGSFNSYYGTDVWGQGTTVTVSSGGGGSGGGGSGGGGSEIVLTQSPATLSLSPGERATLSCRASQSVSIYLAWYQQKPGQAPRLLIYDASNRATGIPARFSGSGSGTDFTLTISSLEPEDFAVYYCQQRSNWPPFTFGPGTKVDIKSAAAFVPVFLPAKPTTTPAPRPPTPAPTIASQPLSLRPEACRPAAGGAVHTRGLDFACDIYIWAPLAGTCGVLLLSLVITLYCNHRNRSKRSRLLHSDYMNMTPRRPGPTRKHYQPYAPPRDFAAYRSRVKFSRSADAPAYQQGQNQLYNELNLGRREEYDVLDKRRGRDPEMGGKPRRKNPQEGLYNELQKDKMAEAYSEIGMKGERRRGKGHDGLYQGLSTATKDTYDALHMQALPPR | 0.222 | – | – |
| 181 M9 (antibody) QGCHIGKRPVPCLWIGSSGGSGGSGGSGGGPLGLAGGSSGQVQLVESGGGVVQPGRSLRLSCAASGFTFSSYGMHWVRQAPGKGLEWVAVIWDDGSNKYYVDSVKGRFTISRDNSKNTLYLQMNSLRAEDTAVYYCARDDYYGSGSFNSYYGTDVWGQGTTVTVSSGGGGSGGGGSGGGGSEIVLTQSPATLSLSPGERATLSCRASQSVSIYLAWYQQKPGQAPRLLIYDASNRATGIPARFSGSGSGTDFTLTISSLEPEDFAVYYCQQRSNWPPFTFGPGTKVDISAAAFVPVFLPAKPTTTPAPRPPTPAPTIASQPLSLRPEACRPAAGGAVHTRGLDFACDIYIWAPLAGTCGVLLLSLVITLYCNHRNRSKRSRLLHSDYMNMTPRRPGPTRKHYQPYAPPRDFAAYRSRVKFSRSADAPAYQQGQNQLYNELNLGRREEYDVLDKRRGRDPEMGGKPRRKNPQEGLYNELQKDKMAEAYSEIGMKGERRRGKGHDGLYQGLSTATKDTYDALHMQALPPR | 0.141 | – | – |
| 181 M13 (antibody) QGCTYPPRFHMHWLCGSSGGSGGSGGSGGGPLGLAGGSSGQVQLVESGGGVVQPGRSLRLSCAASGFTFSSYGMHWVRQAPGKGLEWVAVIWDDGSNKYYVDSVKGRFTISRDNSKNTLYLQMNSLRAEDTAVYYCARDDYYGSGSFNSYYGTDVWGQGTTVTVSSGGGGSGGGGSGGGGSEIVLTQSPATLSLSPGERATLSCRASQSVSIYLAWYQQKPGQAPRLLIYDASNRATGIPARFSGSGSGTDFTLTISSLEPEDFAVYYCQQRSNWPPFTFGPGTKVDIKSAAAFVPVFLPAKPTTTPAPRPPTPAPTIASQPLSLRPEACRPAAGGAVHTRGLDFACDIYIWAPLAGTCGVLLLSLVITLYCNHRNRSKRSRLLHSDYMNMTPRRPGPTRKHYQPYAPPRDFAAYRSRVKFSRSADAPAYQQGQNQLYNELNLGRREEYDVLDKRRGRDPEMGGKPRRKNPQEGLYNELQKDKMAEAYSEIGMKGERRRGKGHDGLYQGLSTATKDTYDALHMQALPPR | 0.0409 | 0.00038 | 0.0586 |
| 181 M6 (antibody) QGVCTYPPAHRTRFCGSSGGSGGSGGSGGGPLGLAGGSSGQVQLVESGGGVVQPGRSLRLSCAASGFTFSSYGMHWVRQAPGKGLEWVAVIWDDGSNKYYVDSVKGRFTISRDNSKNTLYLQMNSLRAEDTAVYYCARDDYYGSGSFNSYYGTDVWGQGTTVTVSSGGGGSGGGGSGGGGSEIVLTQSPATLSLSPGERATLSCRASQSVSIYLAWYQQKPGQAPRLLIYDASNRATGIPARFSGSGSGTDFTLTISSLEPEDFAVYYCQQRSNWPPFTFGPGTKVDIKSAAAFVPVFLPAKPTTTPAPRPPTPAPTIASQPLSLRPEACRPAAGGAVHTRGLDFACDIYIWAPLAGTCGVLLLSLVITLYCNHRNRSKRSRLLHSDYMNMTPRRPGPTRKHYQPYAPPRDFAAYRSRVKFSRSADAPAYQQGQNQLYNELNLGRREEYDVLDKRRGRDPEMGGKPRRKNPQEGLYNELQKDKMAEAYSEIGMKGERRRGKGHDGLYQGLSTATKDTYDALHMQALPPR | 0.0305 | – | – |
| 181 M12 (antibody) QGCTMPVHTYSQWLCGSSGGSGGSGGSGGGPLGLAGGSSGQVQLVESGGGVVQPGRSLRLSCAASGFTFSSYGMHWVRQAPGKGLEWVAVIWDDGSNKYYVDSVKGRFTISRDNSKNTLYLQMNSLRAEDTAVYYCARDDYYGSGSFNSYYGTDVWGQGTTVTVSSGGGGSGGGGSGGGGSEIVLTQSPATLSLSPGERATLSCRASQSVSIYLAWYQQKPGQAPRLLIYDASNRATGIPARFSGSGSGTDFTLTISSLEPEDFAVYYCQQRSNWPPFTFGPGTKVDIKSAAAFVPVFLPAKPTTTPAPRPPTPAPTIASQPLSLRPEACRPAAGGAVHTRGLDFACDIYIWAPLAGTCGVLLLSLVITLYCNHRNRSKRSRLLHSDYMNMTPRRPGPTRKHYQPYAPPRDFAAYRSRVKFSRSADAPAYQQGQNQLYNELNLGRREEYDVLDKRRGRDPEMGGKPRRKNPQEGLYNELQKDKMAEAYSEIGMKGERRRGKGHDGLYQGLSTATKDTYDALHMQALPPR | 0.0938 | – | – |
| 181 M5 (antibody) QGCTYPSWVAYIRFCGSSGGSGGSGGSGGGPLGLAGGSSGQVQLVESGGGVVQPGRSLRLSCAASGFTFSSYGMHWVRQAPGKGLEWVAVIWDDGSNKYYVDSVKGRFTISRDNSKNTLYLQMNSLRAEDTAVYYCARDDYYGSGSFNSYYGTDVWGQGTTVTVSSGGGGSGGGGSGGGGSEIVLTQSPATLSLSPGERATLSCRASQSVSIYLAWYQQKPGQAPRLLIYDASNRATGIPARFSGSGSGTDFTLTISSLEPEDFAVYYCQQRSNWPPFTFGPGTKVDIKSAAAFVPVFLPAKPTTTPAPRPPTPAPTIASQPLSLRPEACRPAAGGAVHTRGLDFACDIYIWAPLAGTCGVLLLSLVITLYCNHRNRSKRSRLLHSDYMNMTPRRPGPTRKHYQPYAPPRDFAAYRSRVKFSRSADAPAYQQGQNQLYNELNLGRREEYDVLDKRRGRDPEMGGKPRRKNPQEGLYNELQKDKMAEAYSEIGMKGERRRGKGHDGLYQGLSTATKDTYDALHMQALPPR | 0.0299 | – | – |
| 181 M7 (antibody) QGCTMPYHIHSIGLCGSSGGSGGSGGSGGGPLGLAGGSSGQVQLVESGGGVVQPGRSLRLSCAASGFTFSSYGMHWVRQAPGKGLEWVAVIWDDGSNKYYVDSVKGRFTISRDNSKNTLYLQMNSLRAEDTAVYYCARDDYYGSGSFNSYYGTDVWGQGTTVTVSSGGGGSGGGGSGGGGSEIVLTQSPATLSLSPGERATLSCRASQSVSIYLAWYQQKPGQAPRLLIYDASNRATGIPARFSGSGSGTDFTLTISSLEPEDFAVYYCQQRSNWPPFTFGPGTKVDIKSAAAFVPVFLPAKPTTTPAPRPPTPAPTIASQPLSLRPEACRPAAGGAVHTRGLDFACDIYIWAPLAGTCGVLLLSLVITLYCNHRNRSKRSRLLHSDYMNMTPRRPGPTRKHYQPYAPPRDFAAYRSRVKFSRSADAPAYQQGQNQLYNELNLGRREEYDVLDKRRGRDPEMGGKPRRKNPQEGLYNELQKDKMAEAYSEIGMKGERRRGKGHDGLYQGLSTATKDTYDALHMQALPPR | 0.119 | – | – |
| 181 M14 (antibody) QGCTHVAQWAIKAFCGSSGGSGGSGGSGGGPLGLAGGSSGQVQLVESGGGVVQPGRSLRLSCAASGFTFSSYGMHWVRQAPGKGLEWVAVIWDDGSNKYYVDSVKGRFTISRDNSKNTLYLQMNSLRAEDTAVYYCARDDYYGSGSFNSYYGTDVWGQGTTVTVSSGGGGSGGGGSGGGGSEIVLTQSPATLSLSPGERATLSCRASQSVSIYLAWYQQKPGQAPRLLIYDASNRATGIPARFSGSGSGTDFTLTISSLEPEDFAVYYCQQRSNWPPFTFGPGTKVDIKSAAAFVPVFLPAKPTTTPAPRPPTPAPTIASQPLSLRPEACRPAAGGAVHTRGLDFACDIYIWAPLAGTCGVLLLSLVITLYCNHRNRSKRSRLLHSDYMNMTPRRPGPTRKHYQPYAPPRDFAAYRSRVKFSRSADAPAYQQGQNQLYNELNLGRREEYDVLDKRRGRDPEMGGKPRRKNPQEGLYNELQKDKMAEAYSEIGMKGERRRGKGHDGLYQGLSTATKDTYDALHMQALPPR | 0.0688 | – | – |
